# T1: M-VWF (Venus - VWF 1530-1670 - Cerulean - His tag FRET protein)
# T1 chain: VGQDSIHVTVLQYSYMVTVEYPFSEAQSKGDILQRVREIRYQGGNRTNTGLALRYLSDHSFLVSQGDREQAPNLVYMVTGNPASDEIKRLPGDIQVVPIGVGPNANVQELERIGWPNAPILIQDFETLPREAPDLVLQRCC
# T2: XS-VWF (Venus - VWF 1594-1670 - Cerulean - His tag FRET protein)
# T2 chain: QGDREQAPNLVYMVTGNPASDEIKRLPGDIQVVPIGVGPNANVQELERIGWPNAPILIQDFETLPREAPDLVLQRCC
# T3: XS-VWF(AA) (XS-VWF with Y1605-M1606 replaced by A1605-A1606)
# T3 chain: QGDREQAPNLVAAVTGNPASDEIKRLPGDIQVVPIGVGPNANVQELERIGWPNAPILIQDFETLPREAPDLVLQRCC
# T4: S-VWF (Venus - VWF 1558-1670 - Cerulean - His tag FRET protein)
# T4 chain: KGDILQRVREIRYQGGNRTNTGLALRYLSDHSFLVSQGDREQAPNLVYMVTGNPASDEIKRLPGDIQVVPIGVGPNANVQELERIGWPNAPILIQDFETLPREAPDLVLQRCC
# T5: L-VWF (Venus - VWF 1496-1670 - Cerulean - His tag FRET protein)
# T5 chain: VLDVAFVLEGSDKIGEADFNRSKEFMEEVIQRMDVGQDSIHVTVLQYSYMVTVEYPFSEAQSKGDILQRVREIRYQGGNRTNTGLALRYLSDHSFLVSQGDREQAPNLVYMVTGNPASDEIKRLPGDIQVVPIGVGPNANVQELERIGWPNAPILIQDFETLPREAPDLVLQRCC
# Assays:
# [1] = molecular target: T1, M-VWF (Venus - VWF 1530-1670 - Cerulean …)
# [2] = molecular target: T2, XS-VWF (Venus - VWF 1594-1670 - …)
# [3] = molecular target: T3, XS-VWF(AA) (XS-VWF with Y1605-M1606 …)
# [4] = molecular target: Mutant VWF-A2 FRET protein with a change at Pro1645 (P1645A)
# [5] = molecular target: T4, S-VWF (Venus - VWF 1558-1670 - Cerulean …)
# [6] = molecular target: Mutant VWF-A2 FRET protein with Cysteine to Glycine at positions 1669 and 1670 (CC1669-70GG)
# [7] = molecular target: T5, L-VWF (Venus - VWF 1496-1670 - Cerulean …)
# [8] = molecular target: Multimeric human plasma VWF
protein,measurement,setting,value
Recombinant human ADAMTS13 (protein) AAGGILHLELLVAVGPDVFQAHQEDTERYVLTNLNIGAELLRDPSLGAQFRVHLVKMVILTEPEGAPNITANLTSSLLSVCGWSQTINPEDDTDPGHADLVLYITRFDLELPDGNRQVRGVTQLGGACSPTWSCLITEDTGFDLGVTIAHEIGHSFGLEHDGAPGSGCGPSGHVMASDGAAPRAGLAWSPCSRRQLLSLLSAGRARCVWDPPRPQPGSAGHPPDAQPGLYYSANEQCRVAFGPKAVACTFAREHLDMCQALSCHTDPLDQSSCSRLLVPLLDGTECGVEKWCSKGRCRSLVELTPIAAVHGRWSSWGPRSPCSRSCGGGVVTRRRQCNNPRPAFGGRACVGADLQAEMCNTQACEKTQLEFMSQQCARTDGQPLRSSPGGASFYHWGAAVPHSQGDALCRHMCRAIGESFIMKRGDSFLDGTRCMPSGPREDGTLSLCVSGSCRTFGCDGRMDSQQVWDRCQVCGGDNSTCSPRKGSFTAGRAREYVTFLTVTPNLTSVYIANHRPLFTHLAVRIGGRYVVAGKMSISPNTTYPSLLEDGRVEYRVALTEDRLPRLEEIRIWGPLQEDADIQVYRRYGEEYGNLTRPDITFTYFQPKPRQAWVWAAVRGPCSVSCGAGLRWVNYSCLDQARKELVETVQCQGSQQPPAWPEACVLEPCPPYWAVGDFGPCSASCGGGLRERPVRCVEAQGSLLKTLPPARCRAGAQQPAVALETCNPQPCPARWEVSEPSSCTSAGGAGLALENETCVPGADGLEAPVTEGPGSVDEKLPAPEPCVGMSCPPGWGHLDATSAGEKAPSPWGSIRTGAQAAHVWTPAAGSCSVSCGRGLMELRFLCMDSALRVPVQEELCGLASKPGSRREVCQAVPCPARWQYKLAACSVSCGRGVVRRILYCARAHGEDDGEEILLDTQCQGLPRPEPQEACSLEPCPPRWKVMSLGPCSASCGLGTARRSVACVQLDQGQDVEVDEAACAALVRPEASVPCLIADCTYRWHVGTWMECSVSCGDGIQRRRDTCLGPQAQAPVPADFCQHLPKPVTVRGCWAGPCVGQGTPSLVPHEEAAAPGRTTATPAGASLEWSQARGLLFSPAPQPRRLLPGPQENSVQSSACGRQHLEPTGTIDMRGPGQADCAVAIGRPLGEVVTLRVLESSLNCSAGDMLLLWGRLTWRKMCRKLLDMTFSSKTNTLVVRQRCGRPGGGVLLRYGSQLAPETFYRECDMQLFGPWGEIVSPSLSPATSNAGGCRLFINVAPHARIAIHALATNMGAGTEGANASYILIRDTHSLRTTAFHGQQVLYWESESSQAEMEFSEGFLKAQASLRGQYWTLQSWVPEMQDPQSWKGKEGT,"FRET ratio after 1 h with ADAMTS13, no denaturant",[1],There was very little change in the FRET ratio of M-VWF
same,"extent of cleavage, no urea",[1],"In the absence of urea, the extent of cleavage of both L- and M-VWF was 20%"
same,proteolysis at 1.6M urea,[1],Increasing urea concentration to 1.6M resulted in 30% proteolysis
same,"FRET ratio after 1 h with ADAMTS13, no denaturant",[2],FRET ratio increased from 0.78 to 1.73 for XS-VWF
same,"cleavage, western blot with anti-his pAb",[2],XS-VWF but not XS-VWF(AA) was cleaved by recombinant ADAMTS13
same,"extent of cleavage (FRET ratio and western blot), varying urea",[2],Complete cleavage of XS-VWF and S-VWF was observed at urea concentrations <2.8M
same,"FRET ratio after 1 h with ADAMTS13, no denaturant",[3],There was very little change in the FRET ratio of ... XS-VWF(AA)
same,"cleavage, western blot with anti-his pAb",[3],XS-VWF but not XS-VWF(AA) was cleaved by recombinant ADAMTS13
same,"cleavage in 1M urea, western blot",[4],changes in the Pro1645 site enhances VWF cleavage even in the presence of low concentrations of urea that are insufficient to cleave the wild-type protein
same,"FRET ratio after 1 h with ADAMTS13, no denaturant",[5],from 1.24 to 1.84 for S-VWF
same,"extent of cleavage (FRET ratio and western blot), varying urea",[5],Complete cleavage of XS-VWF and S-VWF was observed at urea concentrations <2.8M
same,"cleavage in 1M urea, western blot",[6],substitution of Cysteine by Glycine at positions 1669 and 1670 enhances VWF A2 domain proteolysis
same,"FRET ratio after 1 h with ADAMTS13, no denaturant",[7],There was very little change in the FRET ratio of ... L-VWF
same,cleavage at 2M urea after pre-denaturation with 4M urea,[7],>90% cleavage of L-VWF was observed at 2M urea upon inclusion of the pre-denaturation step
same,"extent of cleavage, no urea",[7],"In the absence of urea, the extent of cleavage of both L- and M-VWF was 20%"
same,proteolysis at 1.6M urea,[7],Increasing urea concentration to 1.6M resulted in 30% proteolysis
same,"cleavage after pre-denaturation with 4M urea, western blot",[8],"Proteolysis was however complete at urea>2.4M, provided a pre-denaturation step was included"
same,"cleavage without pre-denaturation, western blot",[8],multimeric VWF was also not fully cleaved when the protein was incubated with varying urea concentrations and ADAMTS13
ADAMTS13 in human plasma (protein) AAGGILHLELLVAVGPDVFQAHQEDTERYVLTNLNIGAELLRDPSLGAQFRVHLVKMVILTEPEGAPNITANLTSSLLSVCGWSQTINPEDDTDPGHADLVLYITRFDLELPDGNRQVRGVTQLGGACSPTWSCLITEDTGFDLGVTIAHEIGHSFGLEHDGAPGSGCGPSGHVMASDGAAPRAGLAWSPCSRRQLLSLLSAGRARCVWDPPRPQPGSAGHPPDAQPGLYYSANEQCRVAFGPKAVACTFAREHLDMCQALSCHTDPLDQSSCSRLLVPLLDGTECGVEKWCSKGRCRSLVELTPIAAVHGRWSSWGPRSPCSRSCGGGVVTRRRQCNNPRPAFGGRACVGADLQAEMCNTQACEKTQLEFMSQQCARTDGQPLRSSPGGASFYHWGAAVPHSQGDALCRHMCRAIGESFIMKRGDSFLDGTRCMPSGPREDGTLSLCVSGSCRTFGCDGRMDSQQVWDRCQVCGGDNSTCSPRKGSFTAGRAREYVTFLTVTPNLTSVYIANHRPLFTHLAVRIGGRYVVAGKMSISPNTTYPSLLEDGRVEYRVALTEDRLPRLEEIRIWGPLQEDADIQVYRRYGEEYGNLTRPDITFTYFQPKPRQAWVWAAVRGPCSVSCGAGLRWVNYSCLDQARKELVETVQCQGSQQPPAWPEACVLEPCPPYWAVGDFGPCSASCGGGLRERPVRCVEAQGSLLKTLPPARCRAGAQQPAVALETCNPQPCPARWEVSEPSSCTSAGGAGLALENETCVPGADGLEAPVTEGPGSVDEKLPAPEPCVGMSCPPGWGHLDATSAGEKAPSPWGSIRTGAQAAHVWTPAAGSCSVSCGRGLMELRFLCMDSALRVPVQEELCGLASKPGSRREVCQAVPCPARWQYKLAACSVSCGRGVVRRILYCARAHGEDDGEEILLDTQCQGLPRPEPQEACSLEPCPPRWKVMSLGPCSASCGLGTARRSVACVQLDQGQDVEVDEAACAALVRPEASVPCLIADCTYRWHVGTWMECSVSCGDGIQRRRDTCLGPQAQAPVPADFCQHLPKPVTVRGCWAGPCVGQGTPSLVPHEEAAAPGRTTATPAGASLEWSQARGLLFSPAPQPRRLLPGPQENSVQSSACGRQHLEPTGTIDMRGPGQADCAVAIGRPLGEVVTLRVLESSLNCSAGDMLLLWGRLTWRKMCRKLLDMTFSSKTNTLVVRQRCGRPGGGVLLRYGSQLAPETFYRECDMQLFGPWGEIVSPSLSPATSNAGGCRLFINVAPHARIAIHALATNMGAGTEGANASYILIRDTHSLRTTAFHGQQVLYWESESSQAEMEFSEGFLKAQASLRGQYWTLQSWVPEMQDPQSWKGKEGT,KM,[2],4.6 µM and KM=4 µM
same,kcat,[2],0.747 s⁻¹
same,"cleavage by FRET, 20% human plasma, 2 hours, 2M urea",[4],higher cleavage of mutant VWF proteins compared to the wild-type molecule upon addition of low concentrations of urea
same,KM,[5],1.8 µM
same,kcat,[5],0.295 s⁻¹
same,"cleavage by FRET, 20% human plasma, 2 hours, 2M urea",[6],higher cleavage of mutant VWF proteins compared to the wild-type molecule upon addition of low concentrations of urea

# Reference: patent US20130078661
